According to IntAct's records for PubMed 22921829:

B1: Mothers against decapentaplegic homolog 7 (Homo sapiens), O15105 (parent)
chain: MFRTKRSALVRRLWRSRAPGGEDEEEGAGGGGGGGELRGEGATDSRAHGAGGGGPGRAGCCLGKAVRGAKGHHHPHPPAAGAGAAGGAEADLKALTHSVLKKLKERQLELLLQAVESRGGTRTACLLLPGRLDCRLGPGAPAGAQPAQPPSSYSLPLLLCKVFRWPDLRHSSEVKRLCCCESYGKINPELVCCNPHHLSRLCELESPPPPYSRYPMDFLKPTADCPDAVPSSAETGGTNYLAPGGLSDSQLLLEPGDRSHWCVVAYWEEKTRVGRLYCVQEPSLDIFYDLPQGNGFCLGQLNSDNKSQLVQKVRSKIGCGIQLTREVDGVWVYNRSSYPIFIKSATLDNPDSRTLLVHKVFPGFSIKAFDYEKAYSLQRPNDHEFMQQPWTGFTVQISFVKGWGQCYTRQFISSCPCWLEVIFNSR
B2: Mothers against decapentaplegic homolog 3 (Homo sapiens), P84022 (parent)
chain: MSSILPFTPPIVKRLLGWKKGEQNGQEEKWCEKAVKSLVKKLKKTGQLDELEKAITTQNVNTKCITIPRSLDGRLQVSHRKGLPHVIYCRLWRWPDLHSHHELRAMELCEFAFNMKKDEVCVNPYHYQRVETPVLPPVLVPRHTEIPAEFPPLDDYSHSIPENTNFPAGIEPQSNIPETPPPGYLSEDGETSDHQMNHSMDAGSPNLSPNPMSPAHNNLDLQPVTYCEPAFWCSISYYELNQRVGETFHASQPSMTVDGFTDPSNSERFCLGLLSNVNRNAAVELTRRHIGRGVRLYYIGGEVFAECLSDSAIFVQSPNCNQRYGWHPATVCKIPPGCNLKIFNNQEFAALLAQSVNQGFEAVYQLTRMCTIRMSFVKGWGAEYRRQTVTSTPCWIELHLNGPLQWLDKVLTQMGSPSIRCSSVS
B3: E3 ubiquitin-protein ligase NEDD4-like (Homo sapiens), Q96PU5-5 (parent)
chain: MATGLGEPVYGLSEDEGESRILRVKVVSGIDLAKKDIFGASDPYVKLSLYVADENRELALVQTKTIKKTLNPKWNEEFYFRVNPSNHRLLFEVFDENRLTRDDFLGQVDVPLSHLPTEDPTMERPYTFKDFLLRPRSHKSRVKGFLRLKMAYMPKNGGQDEENSDQRDDMEHGWEVVDSNDSASQHQEELPPPPLPPGWEEKVDNLGRTYYVNHNNRTTQWHRPSLMDVSSESDNNIRQINQEAAHRRFRSRRHISEDLEPEPSEGGDVPEPWETISEEVNIAGDSLGLALPPPPASPGSRTSPQELSEELSRRLQITPDSNGEQFSSLIQREPSSRLRSCSVTDAVAEQGHLPPPSVAYVHTTPGLPSGWEERKDAKGRTYYVNHNNRTTTWTRPIMQLAEDGASGSATNSNNHLIEPQIRRPRSLSSPTVTLSAPLEGAKDSPVRRAVKDTLSNPQSPQPSPYNSPKPQHKVTQSFLPPGWEMRIAPNGRPFFIDHNTKTTTWEDPRLKFPVHMRSKTSLNPNDLGPLPPGWEERIHLDGRTFYIDHNSKITQWEDPRLQNPAITGPAVPYSREFKQKYDYFRKKLKKPADIPNRFEMKLHRNNIFEESYRRIMSVKRPDVLKARLWIEFESEKGLDYGGVAREWFFLLSKEMFNPYYGLFEYSATDNYTLQINPNSGLCNEDHLSYFTFIGRVAGLAVFHGKLLDGFFIRPFYKMMLGKQITLNDMESVDSEYYNSLKWILENDPTELDLMFCIDEENFGQTYQVDLKPNGSEIMVTNENKREYIDLVIQWRFVNRVQKQMNAFLEGFTELLPIDLIKIFDENELELLMCGLGDVDVNDWRQHSIYKNGYCPNHPVIQWFWKAVLLMDAEKRIRLLQFVTGTSRVPMNGFAELYGSNGPQLFTIEQWGSPEKLPRAHTCFNRLDLPPYETFEDLREKLLMAVENAQGFEGVD
B4: E3 ubiquitin-protein ligase SMURF1 (Homo sapiens), Q9HCE7-1 (parent)
chain: MSNPGTRRNGSSIKIRLTVLCAKNLAKKDFFRLPDPFAKIVVDGSGQCHSTDTVKNTLDPKWNQHYDLYVGKTDSITISVWNHKKIHKKQGAGFLGCVRLLSNAISRLKDTGYQRLDLCKLNPSDTDAVRGQIVVSLQTRDRIGTGGSVVDCRGLLENEGTVYEDSGPGRPLSCFMEEPAPYTDSTGAAAGGGNCRFVESPSQDQRLQAQRLRNPDVRGSLQTPQNRPHGHQSPELPEGYEQRTTVQGQVYFLHTQTGVSTWHDPRIPSPSGTIPGGDAAFLYEFLLQGHTSEPRDLNSVNCDELGPLPPGWEVRSTVSGRIYFVDHNNRTTQFTDPRLHHIMNHQCQLKEPSQPLPLPSEGSLEDEELPAQRYERDLVQKLKVLRHELSLQQPQAGHCRIEVSREEIFEESYRQIMKMRPKDLKKRLMVKFRGEEGLDYGGVAREWLYLLCHEMLNPYYGLFQYSTDNIYMLQINPDSSINPDHLSYFHFVGRIMGLAVFHGHYINGGFTVPFYKQLLGKPIQLSDLESVDPELHKSLVWILENDITPVLDHTFCVEHNAFGRILQHELKPNGRNVPVTEENKKEYVRLYVNWRFMRGIEAQFLALQKGFNELIPQHLLKPFDQKELELIIGGLDKIDLNDWKSNTRLKHCVADSNIVRWFWQAVETFDEERRARLLQFVTGSTRVPLQGFKALQGSTGAAGPRLFTIHLIDANTDNLPKAHTCFNRIDIPPYESYEKLYEKLLTAVEETCGFAVE

Variants of: B1
Details: with NEDD4L

| effect of a mutation on the interaction | Variant |
| --- | --- |
| disrupting interaction strength | P208A;P209A |

Variants of: B2
Details: with NEDD4L

| effect of a mutation on the interaction | Variant |
| --- | --- |
| disrupting interaction strength | T179A |
| disrupting interaction strength | P181A;P182A |

Variants of: B3
Details: with smad7_human SMAD7, O15105

| effect of a mutation on the interaction | Variant |
| --- | --- |
| decreasing interaction strength | K378E;R380E |
| decreasing interaction strength | R380E |
| decreasing interaction strength | K378E |

Variants of: B4
Details: with smad7_human SMAD7, O15105

| effect of a mutation on the interaction | Variant |
| --- | --- |
| decreasing interaction strength | R243A |
| decreasing interaction strength | R243E |
| decreasing interaction strength | Q249E |
| decreasing interaction strength | Q247E;Q249E |
